Measurements as given in article PMC1885967, “The Dynamics of Signal Triggering in a gp130-Receptor Complex” (Structure(London, England:1993), 2007).

B1: Murine Interleukin 11 (residues 22-199) (ligand, UniProt P47873 22-199, looked up)
chain: PGPPAGSPRVSSDPRADLDSAVLLTRSLLADTRQLAAQMRDKFPADGDHSLDSLPTLAMSAGTLGSLQLPGVLTRLRVDLMSYLRHVQWLRRAGGPSLKTLEPELGALQARLERLLRRLQLLMSRLALPQAAPDQPVIPLGPPASAWGSIRAAHAILGGLHLTLDWAVRGLLLLKTRL
notes: Interleukin 11, murine, residues 22-199, subcloned into pET15b; Two copies stand in the hexameric IL-11H complex; also called IL-11
B2: Extracellular region of murine gp130 (residues 1-617) (receptor, UniProt Q00560 23-617, looked up)
chain: QLLEPCGYIYPEFPVVQRGSNFTAICVLKEACLQHYYVNASYIVWKTNHAAVPREQVTVINRTTSSVTFTDVVLPSVQLTCNILSFGQIEQNVYGVTMLSGFPPDKPTNLTCIVNEGKNMLCQWDPGRETYLETNYTLKSEWATEKFPDCQSKHGTSCMVSYMPTYYVNIEVWVEAENALGKVSSESINFDPVDKVKPTPPYNLSVTNSEELSSILKLSWVSSGLGGLLDLKSDIQYRTKDASTWIQVPLEDTMSPRTSFTVQDLKPFTEYVFRIRSIKDSGKGYWSDWSEEASGTTYEDRPSRPPSFWYKTNPSHGQEYRSVRLIWKALPLSEANGKILDYEVILTQSKSVSQTYTVTGTELTVNLTNDRYVASLAARNKVGKSAAAVLTIPSPHVTAAYSVVNLKAFPKDNLLWVEWTPPPKPVSKYILEWCVLSENAPCVEDWQQEDATVNRTHLRGRLLESKCYQITVTPVFATGPGGSESLKAYLKQAAPARGPTVRTKKVGKNEAVLAWDQIPVDDQNGFIRNYSISYRTSVGKEMVVHVDSSHTEYTLSSLSSDTLYMVRMAAYTDEGGKDGPEFTFTTPKFAQGEIE
notes: signal peptide in the construct; gp130, murine, extracellular region (domains D1-D6), residues 1-617, expressed as a secreted soluble protein; Two copies stand in the hexameric IL-11H complex; also called soluble gp130; source: human epithelial kidney 293T cells, transiently transfected, secreted; purified from the media (protein A Sepharose, on-column cleavage with rhinovirus 3C protease); not …

Legend:
Assay in all cases: cryo-EM structure; three affinity-purified subunits mixed with IL-11 in molar excess, complex purified by gel filtration (Superdex 200); 5 mM HEPES pH 7.5, 100 mM NaCl, 1 mM DTT, 0.25% β-octylglucopyranoside; 1 mg/ml, vitrified; single-particle reconstruction with C2 symmetry at 30 Å, homology model (IL-6 hexamer plus FNIII repeats) fitted
[1] = target: B2; conditions: both partners purified
[2] = target: T1, Extracellular region of murine IL-11 receptor (residues 1-361) (murine, UniProt Q64385 24-361); conditions: both partners purified
T1 construct: signal peptide in the construct; IL-11 receptor, murine, extracellular region, residues 1-361, expressed as a secreted soluble protein; Two copies stand in the hexameric IL-11H complex; also called soluble IL-11R; source: Drosophila S2 cells, stably transfected, secreted; purified from the media (protein A Sepharose, on-column cleavage with rhinovirus 3C protease); not shown: Fc, C-terminal, …
T1 sequence (looked up): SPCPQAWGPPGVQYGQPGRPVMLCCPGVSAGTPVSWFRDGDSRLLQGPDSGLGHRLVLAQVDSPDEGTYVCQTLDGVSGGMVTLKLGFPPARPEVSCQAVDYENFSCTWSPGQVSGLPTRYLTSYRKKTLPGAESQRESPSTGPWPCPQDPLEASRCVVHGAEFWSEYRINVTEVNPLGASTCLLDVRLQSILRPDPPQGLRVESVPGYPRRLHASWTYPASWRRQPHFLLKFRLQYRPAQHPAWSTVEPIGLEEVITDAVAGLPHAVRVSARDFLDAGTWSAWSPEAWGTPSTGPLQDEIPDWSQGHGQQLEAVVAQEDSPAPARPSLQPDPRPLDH

[3] = target: the molecule itself

Binder | binding result [1] | binding result [2] | binding result [3]
B1 | binds | binds | 
B2 |  |  | binds
